Experimental data from patent US20250042997A1 (PHYLAXIS BIOSCIENCE, published 2025).
Read-outs that look alike come from different tables or passages of the source.

What was measured:
[1] = target: T1, human Siglec-8 (full-length, on transfected CHO or 293 cells, or native on human eosinophils) (human, UniProt Q9NYZ4 17-499); experiment: flow cytometry on human eosinophils (CD16- CCR3+) from whole blood; anti-human AF647 secondary; MFI
Text: To determine if increasing the valency of Siglec-8 antibodies could enhance agonist activity, the parental llama B12, D1 and E2 VHH sequences were used to generate tetravalent (Tet-B12 (cx8467; SEQ ID NO:50 linked to an Fe), Tet-D1 (cx8469; SEQ ID NO:56 linked to an Fe), and Tet-E2 (cx8463; SEQ ID NO:62 linked to an Fc)) and hexavalent (Hex-B12 (cx8466; SEQ ID NO:51 linked to an Fe), Hex-D1 (cx8523; SEQ ID NO:57 linked to an Fe), and Hex-E2 (cx8522; SEQ ID NO:165 linked to an Fc)), Siglec8-VHH-Fc antibodies linked to a reduced effector function xELL human Fc region via linker 2. The bivalent (Bi-B12 (cx8982), Bi-D1 (cx8983) and Bi-E2 (cx8984)), tetravalent, and hexavalent Siglec8-VHH-Fc antibodies were assessed by flow cytometry for binding to eosinophils (CD16⁻ CCR3⁺). Cells were isolated from whole blood by centrifugation, washed twice with 2% FBS PBS, and resuspended in 1×RBC lysis buffer for 10 minutes at room temperature (RT), washed once in 2% FBS PBS and treated with a second RBC lysis step and washed twice with 2% FBS. Cells were seeded at 200 k/well and resuspended in Human FC block for 10 minutes at RT. Cells were spun down and then resuspended in titrated test articles starting at 200 nM 1:4 and incubated for 30 minutes at 4° C. before being washed twice and resuspended in secondary mixture (2*; anti-CCR3 FITC, anti-human AF647, PI, anti-CD16 BV605) and incubated for 30 minutes at 4° C., washed twice, and bound antibodies were detected via flow cytometry (Novocyte).
As shown in FIG. 2A-2C, bivalent, tetravalent, and hexavalent Siglec8-VHH-Fc antibodies B12 (FIG. 2A), D1 (FIG. 2B) and E2 (FIG. 2C) bound to eosinophils. The calculated affinity was similar between the bivalent, tetravalent, and hexavalent hzSiglec8-VHH-Fc antibodies. The observed Bmax was reduced with increasing valency as anticipated, due the fact that the Fc portion of the antibody was detected in this assay and the ratio of Fc regions to anti-Siglec-8 binding domains is inverse to valency. No binding was observed on other granulocyte populations (CD16⁺ CCR3⁻).

[2] = target: T1, human Siglec-8 (full-length, on …); experiment: flow cytometry on 293 cells transiently transfected with full-length human Siglec-8; A647 anti-human Fc-gamma secondary; median fluorescence, nonlinear fit; table under the graph (Kd column without unit, concentration axis nM Ab)
Protocol: (§1) The binding of the lmG2 and humanized versions (further including Siglec8 hzG2v14), formatted as monomeric VHH-hIgG1 fusions proteins using a non-dimerizing human IgG1 Fe variant region lacking a hinge Fe NNT, was assessed by flow cytometry using 293 cells that had been transiently transfected with full-length human Siglec-8 and detected with an anti-human AF647 secondary antibody. Binding specificity was assessed using untransfected 293 cells as a control. For the binding assays, Siglec-8 293 cells or untransformed 293 cells were seeded in a 96 well U-bottom plate with 50 k cells/well in FACS buffer and incubated at 4° C. with a titration of anti-Siglec8-VHH-NNT for 30 minutes. After washing, the plates were incubated with an A647-conjugated anti-human Fcγ specific secondary antibody diluted 1:10,000 in FACS buffer for 20 minutes at 4° C. The plates were washed, and binding was determined by flow cytometry quantitating anti-human A647 median fluorescent intensity. The maximum specific binding (Bmax) and affinity (Kd) for was determined from the flow cytometry binding data using a nonlinear fit model.

[3] = target: T1, human Siglec-8 (full-length, on …); experiment: as above; remark: listed apart in the source
Protocol: as §1

T1 sequence (Q9NYZ4 17-499): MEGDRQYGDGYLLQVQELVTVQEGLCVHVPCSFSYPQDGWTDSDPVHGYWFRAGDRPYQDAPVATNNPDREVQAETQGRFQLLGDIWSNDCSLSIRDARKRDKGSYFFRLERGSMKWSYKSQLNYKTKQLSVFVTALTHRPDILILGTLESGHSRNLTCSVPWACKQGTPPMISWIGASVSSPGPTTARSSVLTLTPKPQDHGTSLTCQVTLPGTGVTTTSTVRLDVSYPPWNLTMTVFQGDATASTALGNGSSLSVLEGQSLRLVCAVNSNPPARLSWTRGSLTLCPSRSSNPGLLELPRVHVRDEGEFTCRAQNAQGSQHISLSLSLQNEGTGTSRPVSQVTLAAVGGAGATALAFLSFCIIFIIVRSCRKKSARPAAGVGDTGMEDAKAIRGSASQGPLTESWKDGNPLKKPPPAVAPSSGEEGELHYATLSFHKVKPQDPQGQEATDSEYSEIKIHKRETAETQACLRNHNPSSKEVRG

| binding result [1] | Binder | other results |
| --- | --- | --- |
| binds | Tet-D1, tetravalent Siglec8-VHH-Fc (xELL) (Fc fusion, Homodimer through the Fc; also called cx8469) QVQLVESGGGLVQPGGSLRLSCAASGSIASIHGMGWYRQAPGKERELVAAIAGEGSTYYADSVKGRFTISRDFAKNTLYLQMNNLKAEDTAMYYCANNDERDDYWGQGTQVTVKPGGSGGSQVQLVESGGGLVQPGGSLRLSCAASGSIASIHGMGWYRQAPGKERELVAAIAGEGSTYYADSVKGRFTISRDFAKNTLYLQMNNLKAEDTAMYYCANNDERDDYWGQGTQVTVKPGGGGDKTHTCPPCPAPGGPSVFLFPPKPKDTLMISRTPEVTCVVVDVSHEDPEVKFNWYVDGVEVHNAKTKPREEQYNSTYRVVSVLTVLHQDWLNGKEYKCKVSNKALPAPIEKTISKAKGQPREPQVYTLPPSRDELTKNQVSLTCLVKGFYPSDIAVEWESNGQPENNYKTTPPVLDSDGSFFLYSKLTVDKSRWQQGNVFSCSVMHEALHNHYTQKSLSLSPGK | – |
| binds | Hex-E2, hexavalent Siglec8-VHH-Fc (xELL) (Fc fusion, Homodimer through the Fc; also called cx8522) QVQLVESGGGLVQPGGSLRLSCATSGIIFTSNVINWYRQAPGKQREFVAFITSITSGQSTMYADAVKGRFTVSRDNDKNIGYLQMTSLQPEDTARYVCNVGAYWGQGTQVTVKPGGSGGSQVQLVESGGGLVQPGGSLRLSCATSGIIFTSNVINWYRQAPGKQREFVAFITSITSGQSTMYADAVKGRFTVSRDNDKNIGYLQMTSLQPEDTARYVCNVGAYWGQGTQVTVKPGGSGGSQVQLVESGGGLVQPGGSLRLSCATSGIIFTSNVINWYRQAPGKQREFVAFITSITSGQSTMYADAVKGRFTVSRDNDKNIGYLQMTSLQPEDTARYVCNVGAYWGQGTQVTVKPGGGGDKTHTCPPCPAPGGPSVFLFPPKPKDTLMISRTPEVTCVVVDVSHEDPEVKFNWYVDGVEVHNAKTKPREEQYNSTYRVVSVLTVLHQDWLNGKEYKCKVSNKALPAPIEKTISKAKGQPREPQVYTLPPSRDELTKNQVSLTCLVKGFYPSDIAVEWESNGQPENNYKTTPPVLDSDGSFFLYSKLTVDKSRWQQGNVFSCSVMHEALHNHYTQKSLSLSPGK | – |
| binds | Tet-E2, tetravalent Siglec8-VHH-Fc (xELL) (Fc fusion, Homodimer through the Fc; also called cx8463) QVQLVESGGGLVQPGGSLRLSCATSGIIFTSNVINWYRQAPGKQREFVAFITSITSGQSTMYADAVKGRFTVSRDNDKNIGYLQMTSLQPEDTARYVCNVGAYWGQGTQVTVKPGGSGGSQVQLVESGGGLVQPGGSLRLSCATSGIIFTSNVINWYRQAPGKQREFVAFITSITSGQSTMYADAVKGRFTVSRDNDKNIGYLQMTSLQPEDTARYVCNVGAYWGQGTQVTVKPGGGGDKTHTCPPCPAPGGPSVFLFPPKPKDTLMISRTPEVTCVVVDVSHEDPEVKFNWYVDGVEVHNAKTKPREEQYNSTYRVVSVLTVLHQDWLNGKEYKCKVSNKALPAPIEKTISKAKGQPREPQVYTLPPSRDELTKNQVSLTCLVKGFYPSDIAVEWESNGQPENNYKTTPPVLDSDGSFFLYSKLTVDKSRWQQGNVFSCSVMHEALHNHYTQKSLSLSPGK | – |

Further lines, the binder ahead of its results:

| Binder | binding result [1] | other results |
| --- | --- | --- |
| Hex-B12, hexavalent Siglec8-VHH-Fc (xELL) (Fc fusion, Homodimer through the Fc; also called cx8466) QVQVVESGGGLVQPGGSLRLSCAASGSTSLLNAMAWYRQAPGKERELVAAISSGGGTYYADSVKGRFTISTNNAKNTLYLQMNSLKPEDTAMYYCAPGPNYSDYEEINWGQGTQVTVKPGGSGGSQVQVVESGGGLVQPGGSLRLSCAASGSTSLLNAMAWYRQAPGKERELVAAISSGGGTYYADSVKGRFTISTNNAKNTLYLQMNSLKPEDTAMYYCAPGPNYSDYEEINWGQGTQVTVKPGGSGGSQVQVVESGGGLVQPGGSLRLSCAASGSTSLLNAMAWYRQAPGKERELVAAISSGGGTYYADSVKGRFTISTNNAKNTLYLQMNSLKPEDTAMYYCAPGPNYSDYEEINWGQGTQVTVKPGGGGDKTHTCPPCPAPGGPSVFLFPPKPKDTLMISRTPEVTCVVVDVSHEDPEVKFNWYVDGVEVHNAKTKPREEQYNSTYRVVSVLTVLHQDWLNGKEYKCKVSNKALPAPIEKTISKAKGQPREPQVYTLPPSRDELTKNQVSLTCLVKGFYPSDIAVEWESNGQPENNYKTTPPVLDSDGSFFLYSKLTVDKSRWQQGNVFSCSVMHEALHNHYTQKSLSLSPGK | binds | – |
| Hex-D1, hexavalent Siglec8-VHH-Fc (xELL) (Fc fusion, Homodimer through the Fc; also called cx8523) QVQLVESGGGLVQPGGSLRLSCAASGSIASIHGMGWYRQAPGKERELVAAIAGEGSTYYADSVKGRFTISRDFAKNTLYLQMNNLKAEDTAMYYCANNDERDDYWGQGTQVTVKPGGSGGSQVQLVESGGGLVQPGGSLRLSCAASGSIASIHGMGWYRQAPGKERELVAAIAGEGSTYYADSVKGRFTISRDFAKNTLYLQMNNLKAEDTAMYYCANNDERDDYWGQGTQVTVKPGGSGGSQVQLVESGGGLVQPGGSLRLSCAASGSIASIHGMGWYRQAPGKERELVAAIAGEGSTYYADSVKGRFTISRDFAKNTLYLQMNNLKAEDTAMYYCANNDERDDYWGQGTQVTVKPGGGGDKTHTCPPCPAPGGPSVFLFPPKPKDTLMISRTPEVTCVVVDVSHEDPEVKFNWYVDGVEVHNAKTKPREEQYNSTYRVVSVLTVLHQDWLNGKEYKCKVSNKALPAPIEKTISKAKGQPREPQVYTLPPSRDELTKNQVSLTCLVKGFYPSDIAVEWESNGQPENNYKTTPPVLDSDGSFFLYSKLTVDKSRWQQGNVFSCSVMHEALHNHYTQKSLSLSPGK | binds | – |
| Tet-B12, tetravalent Siglec8-VHH-Fc (xELL) (Fc fusion, Homodimer through the Fc; also called cx8467) QVQVVESGGGLVQPGGSLRLSCAASGSTSLLNAMAWYRQAPGKERELVAAISSGGGTYYADSVKGRFTISTNNAKNTLYLQMNSLKPEDTAMYYCAPGPNYSDYEEINWGQGTQVTVKPGGSGGSQVQVVESGGGLVQPGGSLRLSCAASGSTSLLNAMAWYRQAPGKERELVAAISSGGGTYYADSVKGRFTISTNNAKNTLYLQMNSLKPEDTAMYYCAPGPNYSDYEEINWGQGTQVTVKPGGGGDKTHTCPPCPAPGGPSVFLFPPKPKDTLMISRTPEVTCVVVDVSHEDPEVKFNWYVDGVEVHNAKTKPREEQYNSTYRVVSVLTVLHQDWLNGKEYKCKVSNKALPAPIEKTISKAKGQPREPQVYTLPPSRDELTKNQVSLTCLVKGFYPSDIAVEWESNGQPENNYKTTPPVLDSDGSFFLYSKLTVDKSRWQQGNVFSCSVMHEALHNHYTQKSLSLSPGK | binds | – |
| Siglec8 hzG2v25, monomeric VHH-hIgG1 fusion (Fc NNT) (Fc fusion, Monomeric format; not shown: non-dimerizing human IgG1 Fc variant lacking a hinge (Fc NNT)) EVQLLESGGGLVQTGGSLRLSCAASGSISIFSMYVVAWYRQAPGKQREWVAFIQRGGTANYAESAKGRFTISRDNAKNTVYLQMSSLRAEDTAVYYCNYINSDNEIGGPWGQGTLVTVKP | – | Kd [2]: 0.0912 nM |
| Siglec8 hzG2v30, monomeric VHH-hIgG1 fusion (Fc NNT) (Fc fusion, Monomeric format; not shown: non-dimerizing human IgG1 Fc variant lacking a hinge (Fc NNT)) EVQLLESGGGLVRTGGSLRLSCAASGSISIFSMYVVAWYRQAPGKQREWVAFIQRGGTANYAESAKGRFTISRDNAKNTVYLQMSSLRAEDTAVYYCNYINSDNEIGGPWGQGTLVTVKP | – | Kd [3]: 0.124 nM |
| Siglec8 hzG2v28, monomeric VHH-hIgG1 fusion (Fc NNT) (Fc fusion, Monomeric format; not shown: non-dimerizing human IgG1 Fc variant lacking a hinge (Fc NNT)) EVQLLESGGGEVQTGGSLRLSCAASGSISIFSMYVVAWYRQAPGKQREWVAFIQRGGTANYAESAKGRFTISRDNAKNTVYLQMSSLRAEDTAVYYCNYINSDNEIGGPWGQGTLVTVKP | – | Kd [3]: 0.0966 nM |
| Siglec8 hzG2v29, monomeric VHH-hIgG1 fusion (Fc NNT) (Fc fusion, Monomeric format; not shown: non-dimerizing human IgG1 Fc variant lacking a hinge (Fc NNT)) EVQLLESGGGEVRPGGSLRLSCAASGSISIFSMYVVAWYRQAPGKQREWVAFIQRGGTANYAESAKGRFTISRDNAKNTVYLQMSSLRAEDTAVYYCNYINSDNEIGGPWGQGTLVTVKP | – | Kd [3]: 0.111 nM |
| Siglec8 hzG2v26, monomeric VHH-hIgG1 fusion (Fc NNT) (Fc fusion, Monomeric format; not shown: non-dimerizing human IgG1 Fc variant lacking a hinge (Fc NNT)) EVQLLESGGGLVRPGGSLRLSCAASGSISIFSMYVVAWYRQAPGKQREWVAFIQRGGTANYAESAKGRFTISRDNAKNTVYLQMSSLRAEDTAVYYCNYINSDNEIGGPWGQGTLVTVKP | – | Kd [2]: 0.151 nM |
